Square brackets hold non-standard residues; d marks the D form. Ends that are not written are not given here. * marks the point of attachment. Cyclohexylacetyl(1-SH) = O=C(CC1(S)CCCCC1)*; Cyclohexylacetyl = O=C(CC1CCCCC1)*; dChg = N[C@@H](C(=O)O)C1CCCCC1; Chg = N[C@H](C(=O)O)C1CCCCC1; Nle = CCCC[C@H](N)C(=O)O; Orn = NCCC[C@H](N)C(=O)O; Dap = NC[C@H](N)C(=O)O
B1: Re-complexed Ac-Nle-Ala-His-D-Phe-Arg-Cys-Trp-NH2 (peptide)
peptide: XAHFRCW
modifications: N-terminal acetyl; X at 1 = Nle; D-Phe at 4; Cys 6 complexed to a rhenium-oxo (Re) metal ion; C-terminal amide
B2: Re-complexed Ac-Nle-Ala-Cys-His-D-Phe-Arg-Trp-NH2 (peptide)
peptide: Ac-[Nle]ACH[dF]RW-NH2
modifications: bridge (positions not given here) via ReOCl3(PPh3)2; also: oxorhenium(V) N3S1 metal chelate (X-X-Cys)
B3: Re-complexed Ac-Nle-Ala-His-D-Phe-Cys-Arg-Trp-NH2 (peptide)
peptide: Ac-[Nle]AH[dF]CRW-NH2
modifications: bridge (positions not given here) via ReOCl3(PPh3)2; also: oxorhenium(V) metal complex
B4: Re-complexed Ac-Nle-Ala-His-D-Phe-Arg-Trp-Cys-NH2 (peptide)
peptide: Ac-[Nle]AH[dF]RWC-NH2
modifications: bridge (positions not given here) via ReOCl3(PPh3)2; also: oxorhenium(V) metal complex
B5: Re-complexed Ac-Nle-Ala-His-Cys-D-Phe-Arg-Trp-NH2 (peptide)
peptide: Ac-[Nle]AHC[dF]RW-NH2
modifications: bridge (positions not given here) via ReOCl3(PPh3)2; also: oxorhenium(V) metal complex
B6: Re-complexed Caca-D-Trp-Ile-Thr-Dap-Cys-Ala-Pro-Orn-NH2 (peptide)
peptide: Cyclohexylacetyl-[dW]IT[Dap]CAP[Orn]-NH2
modifications: not fully specified (bridges); printed as Caca-D-Trp-Ile-*Thr-Dap-Cys*-Ala-Pro-Orn-NH₂; numbers in words are those of the source; also: Cys6 complexed to rhenium-oxo (Re=O)
B7: Re-complexed Caca-D-Trp-Ile-Thr-Dap-Ala-Ala-Orn-Cys-NH2 (peptide)
peptide: Cyclohexylacetyl-[dW]IT[Dap]AA[Orn]C-NH2
modifications: numbers in words are those of the source; also: rhenium-oxo (Re(V)=O) complex at Cys9
B8: Re-complexed D-Chg-D-Trp-Cys-Ile-Thr-Dap-Ala-Pro-Orn-NH2 (peptide)
peptide: [dChg][dW]CIT[Dap]AP[Orn]-NH2
modifications: bridge (positions not given here); not fully specified (bridges); printed as Re-complexed D-Chg-D-Trp-Cys-Ile-Thr-Dap-Ala-Pro-Orn-NH2; also: oxorhenium(V) metal complex
B9: Re-complexed Caca-D-Trp-Ile-Cys-Thr-Dap-Ala-Pro-Orn-NH2 (peptide)
peptide: Cyclohexylacetyl-[dW]ICT[Dap]AP[Orn]-NH2
modifications: not fully specified (bridges); printed as Caca-D-*Trp-Ile-Cys*-Thr-Dap-Ala-Pro-Orn-NH₂; numbers in words are those of the source; also: Cys4 complexed to rhenium-oxo (Re=O)
B10: Re-complexed Pmp-D-Trp-Cys-Ile-Thr-Dap-Ala-Pro-Orn-NH2 (peptide)
peptide: {Cyclohexylacetyl(1-SH)}-[dW]CIT[Dap]AP[Orn]-NH2
modifications: not fully specified (bridges); printed as *Pmp-D-Trp-Cys*-Ile-Thr-Dap-Ala-Pro-Orn-NH₂; numbers in words are those of the source; also: Cys3 complexed to rhenium-oxo (Re=O)
B11: Re-complexed Caca-D-Trp-Ile-Thr-Dap-Ala-Cys-Ala-Orn-NH2 (peptide)
peptide: Cyclohexylacetyl-[dW]IT[Dap]ACA[Orn]-NH2
modifications: not fully specified (bridges); printed as Caca-D-Trp-Ile-Thr-*Dap-Ala-Cys*-Ala-Orn-NH₂; numbers in words are those of the source; also: Cys7 complexed to rhenium-oxo (Re=O)
B12: Re-complexed Caca-D-Trp-Ile-Thr-Dap-Ala-Cys-Pro-Orn-NH2 (peptide)
peptide: Cyclohexylacetyl-[dW]IT[Dap]ACP[Orn]-NH2
modifications: not fully specified (bridges); printed as Caca-D-Trp-Ile-Thr-*Dap-Ala-Cys*-Pro-Orn-NH₂; numbers in words are those of the source; also: Cys7 complexed to rhenium-oxo (Re=O)
B13: Re-complexed Caca-D-Trp-Ile-Thr-Cys-Dap-Ala-Pro-Orn-NH2 (peptide)
peptide: Cyclohexylacetyl-[dW]ITC[Dap]AP[Orn]-NH2
modifications: not fully specified (bridges); printed as Caca-D-Trp-*Ile-Thr-Cys*-Dap-Ala-Pro-Orn-NH₂; numbers in words are those of the source; also: Cys5 complexed to rhenium-oxo (Re=O)
B14: Re-complexed Caca-D-Trp-Ile-Thr-Dap-Ala-Ala-Cys-Orn-NH2 (peptide)
peptide: Cyclohexylacetyl-[dW]IT[Dap]AAC[Orn]-NH2
modifications: numbers in words are those of the source; also: rhenium-oxo (Re(V)=O) complex at Cys8
B15: Re-complexed Chg-D-Trp-Cys-Ile-Thr-Dap-Ala-Pro-Orn-NH2 (peptide)
peptide: [Chg][dW]CIT[Dap]AP[Orn]-NH2
modifications: not fully specified (bridges); printed as Re-complexed Chg-D-Trp-Cys-Ile-Thr-Dap-Ala-Pro-Orn-NH2; also: Cys3 complexed to rhenium-oxo (Re=O)

The binders below were run against MC1-R of B-16 mouse melanoma cells (mouse) (UniProt Q01727) (assay: competition with 0.4 nM 125I-NDP-alpha-MSH on B-16 mouse melanoma cell membranes, metallopeptide at 1 µM).
MC1-R of B-16 mouse melanoma cells (mouse), sequence (Q01727 whole entry): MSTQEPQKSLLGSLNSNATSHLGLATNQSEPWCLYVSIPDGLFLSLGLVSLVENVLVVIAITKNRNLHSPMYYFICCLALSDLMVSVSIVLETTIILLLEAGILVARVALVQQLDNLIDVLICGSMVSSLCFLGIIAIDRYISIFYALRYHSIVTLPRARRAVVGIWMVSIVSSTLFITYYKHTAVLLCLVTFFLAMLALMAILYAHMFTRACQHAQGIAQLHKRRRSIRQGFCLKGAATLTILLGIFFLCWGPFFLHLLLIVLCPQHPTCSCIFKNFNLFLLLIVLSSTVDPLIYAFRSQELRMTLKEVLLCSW

B1 and B2 are the same in % Inhibition at 1 µM: 96% for the first, 96% for the second.

Compared with B3, B4 is lower in % Inhibition at 1 µM: 93% for the first, 91% for the second.

For B5, the % Inhibition at 1 µM was 84%.

What follows are binders tested against hMC4-R (human) (UniProt P32245) (assay: competition with 0.4 nM 125I-NDP-alpha-MSH on hMC4-R membranes, metallopeptide at 1 µM).
hMC4-R (human), sequence (P32245 whole entry): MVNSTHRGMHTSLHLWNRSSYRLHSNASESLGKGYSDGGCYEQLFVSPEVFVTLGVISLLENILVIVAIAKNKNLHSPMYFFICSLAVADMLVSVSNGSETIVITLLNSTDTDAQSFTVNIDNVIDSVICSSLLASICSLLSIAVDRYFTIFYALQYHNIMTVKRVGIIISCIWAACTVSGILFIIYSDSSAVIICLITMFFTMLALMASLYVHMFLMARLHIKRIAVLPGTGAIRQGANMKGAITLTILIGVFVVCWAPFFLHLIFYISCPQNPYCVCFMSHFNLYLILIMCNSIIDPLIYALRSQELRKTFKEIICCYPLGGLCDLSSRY

Compared with B2, B3 is lower in % Inhibition at 1 µM: 71% for the first, 66% for the second.

Compared with B4, B5 is lower in % Inhibition at 1 µM: 98% for the first, 75% for the second.

Each binder was assayed against vasopressin-1 receptor of rat liver cell membranes (rat) (UniProt P30560) (assay: competition with 3H-vasopressin-1 antagonist on rat liver membranes, metallopeptide at 1 µM).
vasopressin-1 receptor of rat liver cell membranes (rat), sequence (P30560 whole entry): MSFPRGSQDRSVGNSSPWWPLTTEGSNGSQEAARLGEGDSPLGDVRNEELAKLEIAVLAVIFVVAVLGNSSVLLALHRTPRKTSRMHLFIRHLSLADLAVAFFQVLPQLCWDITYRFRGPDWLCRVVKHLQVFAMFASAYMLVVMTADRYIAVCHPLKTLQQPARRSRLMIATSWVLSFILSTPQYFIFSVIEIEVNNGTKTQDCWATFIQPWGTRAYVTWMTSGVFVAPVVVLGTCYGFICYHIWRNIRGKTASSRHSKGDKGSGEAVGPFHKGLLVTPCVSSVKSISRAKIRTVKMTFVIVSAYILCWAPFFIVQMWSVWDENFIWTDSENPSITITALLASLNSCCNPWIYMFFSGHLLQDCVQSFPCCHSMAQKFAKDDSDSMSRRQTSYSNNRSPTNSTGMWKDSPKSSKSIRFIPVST

Compared with B6, B7 is higher in % Inhibition at 1 µM: 22% for the first, 23% for the second.

Going from B8 to B9, the % Inhibition at 1 µM rises from 8% to 52%.

Compared with B10, B11 is lower in % Inhibition at 1 µM: 23% for the first, 0% for the second.

B12 and B13 are the same in % Inhibition at 1 µM: 0% for the first, 0% for the second.

B14 and B15 are the same in % Inhibition at 1 µM: 0% for the first, 0% for the second.

Each binder was assayed against oxytocin receptor of rat uterus cell membranes (rat) (UniProt P70536) (assay: competition with 3H-oxytocin on rat uterus membranes, metallopeptide at 1 µM).
oxytocin receptor of rat uterus cell membranes (rat), sequence (P70536 whole entry): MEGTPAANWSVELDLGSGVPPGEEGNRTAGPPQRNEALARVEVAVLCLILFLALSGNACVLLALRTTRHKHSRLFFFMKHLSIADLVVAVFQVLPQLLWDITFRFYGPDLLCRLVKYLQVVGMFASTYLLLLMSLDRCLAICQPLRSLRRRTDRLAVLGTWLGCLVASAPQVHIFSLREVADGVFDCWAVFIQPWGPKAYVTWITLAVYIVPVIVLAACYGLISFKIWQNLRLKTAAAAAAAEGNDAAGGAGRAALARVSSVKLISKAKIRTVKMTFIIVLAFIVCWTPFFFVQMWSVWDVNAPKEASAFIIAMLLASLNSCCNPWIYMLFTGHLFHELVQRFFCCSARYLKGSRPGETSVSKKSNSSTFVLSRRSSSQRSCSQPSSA

Compared with B6, B7 is lower in % Inhibition at 1 µM: 9% for the first, 0% for the second.

B8 and B9 are the same in % Inhibition at 1 µM: 0% for the first, 0% for the second.

B10 and B11 are the same in % Inhibition at 1 µM: 0% for the first, 0% for the second.

B12 and B13 are the same in % Inhibition at 1 µM: 0% for the first, 0% for the second.

B14 and B15 are the same in % Inhibition at 1 µM: 0% for the first, 0% for the second.

Each binder was assayed against hMC3-R (human) (UniProt P41968) (assay: competition with 0.4 nM 125I-NDP-alpha-MSH on hMC3-R membranes, metallopeptide at 1 µM).
hMC3-R (human), sequence (P41968 whole entry): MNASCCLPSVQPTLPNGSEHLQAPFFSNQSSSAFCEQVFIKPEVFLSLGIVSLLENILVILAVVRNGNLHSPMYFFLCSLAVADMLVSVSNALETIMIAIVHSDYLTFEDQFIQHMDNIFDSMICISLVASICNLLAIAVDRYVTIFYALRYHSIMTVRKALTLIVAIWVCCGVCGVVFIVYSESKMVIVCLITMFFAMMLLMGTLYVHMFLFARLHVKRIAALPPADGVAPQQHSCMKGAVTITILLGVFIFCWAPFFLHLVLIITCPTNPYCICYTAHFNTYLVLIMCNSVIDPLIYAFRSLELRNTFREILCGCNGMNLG

Going from B2 to B3, the % Inhibition at 1 µM falls from 47% to 15%.

Going from B4 to B5, the % Inhibition at 1 µM falls from 70% to 9%.

What follows are binders tested against hMC5-R (human) (UniProt P33032) (assay: competition with 0.4 nM 125I-NDP-alpha-MSH on hMC5-R membranes, metallopeptide at 1 µM).
hMC5-R (human), sequence (P33032 whole entry): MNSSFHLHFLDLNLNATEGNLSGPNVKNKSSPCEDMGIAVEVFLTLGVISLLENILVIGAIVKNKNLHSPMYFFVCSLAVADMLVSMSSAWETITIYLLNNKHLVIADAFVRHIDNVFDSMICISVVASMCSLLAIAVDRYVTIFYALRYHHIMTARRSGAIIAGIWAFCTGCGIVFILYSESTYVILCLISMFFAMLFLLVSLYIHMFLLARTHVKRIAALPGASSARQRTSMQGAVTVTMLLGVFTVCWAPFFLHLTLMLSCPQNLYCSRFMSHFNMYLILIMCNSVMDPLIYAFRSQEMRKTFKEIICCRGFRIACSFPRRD

Compared with B2, B3 is lower in % Inhibition at 1 µM: 64% for the first, 57% for the second.

Compared with B4, B5 is lower in % Inhibition at 1 µM: 93% for the first, 58% for the second.

Source: EP1379283B1, “IDENTIFICATION OF TARGET-SPECIFIC FOLDING SITES IN PEPTIDES AND PROTEINS” (Palatin Technologies, Inc., priority 2000, dated 2002)
